Measurements from the DeepSol protein solubility set.

test: soluble on expression in E. coli; label from the status in PepcDB or PDB records

| Sequence | soluble on expression in E. coli |
| --- | --- |
| MATPTEKQILTLAQWFSPAYPVGAFAYSHGLEWSVEAGDVVDARTAQAWITDVLQHGAGWNDCLFIGSAYRAASLQELKNINDTALAFSASSERMMETRLQGEAFCGITASVWPVDLAGLCYPVAVGRAANLVGLPLTLSGQFYLHAFMANLVTAATRLVPLGQTEGQQIIRDLTPLCQAIADTALCANLSHLTSTAFLGDIAAMKHETQYSRMFRTLEHHHHHH | not soluble |
| MATQGAWLRMTSSAKSMTKSTVTSKELGFLTSQLSGLRISYTPSDVINRISLPSFPGIQPIVARRICPFTGKKANRANKVSFSNHKTKKLQFVNLQYKRVWWEAGKRFVKLRLSTKALKTIEKNGLDAVAKKAGIDLRKKLEHHHHHH | not soluble |
| MATQMRLTDTNLLEVLNSEEYSGVLKEFREQRYSKKAILYTPNTERNLVFLVKSGRVRVYLAYEDKEFTLAILEAGDIFCTHTRAFIQAMEDTTILYTDIRNFQNIVVEFPAFSLNMVKVLGDLLKLLLTIINGLVFKDARLRLAEFLVQAAMDTGLKVPQGIKLELGLNTEEIALMLGTTRQTVSVLLNDFKKMGILERVNQRTLLLKDLQKLKEFSSGV | soluble |
| MATRGPTPDKARMGLPDRWLHCPKTGTLINNLFFPFKTPLCKMYDNQIAERRYQFHPAEVFSHPHLHGKKIGLWIDLTNTDRYYFREEVTEHECIYHKMKMAGRGVSPTQEDTDNFIKLVQEFHKKYPDRVVGVHCTHGFNRTGFLIAAYLFQVEEYGLDAAIGEFAENRQKGIYKQDYIDDLFARYDPTEDDKILAPEKPDWEREMSIGMSTQIDNGRPSTSQQIPATNGNNNQNGNQLSGGGDNSKLFMDGLIRGVKVCEDEGKKSMLQAKIKNLCKYNKQGFPGLQPVSLSRGNINLLEQESYMVSWKADGMRYIIYINDGDVYAFDRDNEVFEIENLDFVTKNGAPLMETLVDTEVIIDKVEINGAMCDQPRMLIYDIMRFNSVNVMKEPFYKRFEIIKTEIIDMRTAAFKTGRLKHENQIMSVRRKDFYDLEATAKLFGPKFVQHVGHEIDGLIFQPKKTKYETGRCDKVLKWKPPSHNSVDFLLKVEKKCKEGMLPEWIGYLFVQNLSDPFGTMKATATLKKYHNKIIECTLLVDNQGRPKEWKFMRERTDKSLPNGLRTAENVVETMVNPVTETYLIEYVNHALRVLKRAAAAHRHHQIHQQQLHEGEPEARRQKL | not soluble |
| MATRPKTIWESFLSPVVRFLMDEDKWRRYAQSIDWEKESDRFRRTDVIIPSYYTSQNFHGIEGGYLNSSAAVTYDPITEYVLPPNETLVRQALIDGVKVQPRRILDLGCGTGSTTLMLKQAFPQADVIGLDLSPYMLVRAEDKARTADLDISWRHGNAEKTSFPNASFDLVTTSLLFHETPVEVSQTILQECFRLLVAGGQVIILDGNQKSLRQLNWLNDIFEEPYIREYAADNLDARMGAAGFVGVQTEDLWLIHQVTSGIKPILATDTNQIKDRQYMPAIDNNNLEGLESPAFGIVALEHHHHHH | not soluble |
| MATSFRYGHGGSYKSACAVWFDLLPALREGRICITNIHGMQPLEVIEQRLGEKFPDTARLIRISSRNPEGFELWKYFFCWAPIGAFILIDECQQIFSVNAGFKMANIHKRPFTDFEPHLPEGFSELFHSRWLTIDTSSLDNGEIDDCQRTRFDEQGRIIYPENFNNAFMEHRHYNWDIVLLTPDFAQIPKELKGVAELAKQHKGKDGIFFSNRKPRILEHDPTRTVTKPSKDDVVYNLKVPLDVHLLYASTVTGQ | not soluble |
| MATSKLQAIWNHPAGPKTIHFWAPTFKWGISIANIADFAKPPEKLSYPQQIAVTCTGVIWSRYSMVINPKNWNLFSVNVAMAGTGIYQLARKIKHDYATEAEPAVASE | soluble |
| MATSVLCCLRCCRDGGTGHIPLKEMPAVQLDTQHMGIWGIGVATQKVNLNQIPLGRDMHSLVMRNDGALYHNNEEKNRLPANSLPQEGDVVGITYDHVELNVYLNGKNMHCPASGIRGTVYPVVYDDDSAILDCQFSEFYHTPPPGFEKILFEQQIF | not soluble |
| MATTKLSATKSTSRAINYAEKRAVEKSGLNCDVDYAKSSFKAARELYGKTDGNQGHVIIQSFQPGEVTPEQCNQLGLALAEKLVPNHQVAVYTHADTNHVHNHIVLNSIDLNTGKKFNNNKQALRDVRAFNDEVCRAQGLSVPEKDTARLRYTQTEKAIADPNTTSTAQYSWKDDIREAIDQSTATNMEEFQKHLNQHGITIERVTPKSITYRHLAENKKVRGRKLGEDYNKGGIQHGFERQIQRRQQQKHKSDTNFQPKRSTSNRHESTERDTGVTQSDWDQFAQDTNELERRRQAAESARLVDEKARRDREKRVREKPTSRPIINIDRDHGLEL | not soluble |
| MATTKRVLYVGGLAEEVDDKVLHAAFIPFGDITDIQIPLDYETEKHRGFAFVEFELAEDAAAAIDNMNESELFGRTIRVNLAKPMRIKE | soluble |
| MATTLKPVDAVVVGFGWTGAILAKELTEAGLNVVALERGENRDTYPDGAYPNTLDELTYNTRGKLFQNLSKSTVSIRHGINDTALPYRQLSAFLPGDGVGGAGLHWSGVHFRIMPEELRLRSHYEERYGKKFIPEGMTIQDYGVSYEELEPHFDFAEKVFGTSGTAHTVKGQVVGKGNPFAADRSDDFPLPALRQVYSAQLFRKAAEELGLHPYDLPAANASGPWTNPYGVQMGPCNFCGFCSGYACYMYSKASPNLNILPALRQTPLFELRANCNVLKVNLDSDGRQATGVTYVDAQGREIVQPAKLVIISAFQFHNVRLLLLSGIGKPYDPRTGEGVVGKNFAYQNMATIKAFFDKDVHTNPFVGTGGGGVAVDDFNADNFDHGPLGFVGGSPMWVNQAGSKPIGGLAVPPGTPSWGSGWKQAVKDAYTHTVSMDAHGSNMTYRDNYLDLDPTYKDAYGQPLLRMTFDWKDNEIRMSRYVTEHMRKIAEAMNPKAISVSVKNFGDHFNTRVYQTTHLLGGAIMGSDPKTSVLNRYLQSWDVHNVFVMGASAFPQGTGYNPTGLVAALAYWSAKAIREQYLKNPGPLVQALEHHHHHH | not soluble |
| MATVSDDYAQIDISTEEKDKLVAEVMRHVLFKTHQTAGCPIKREELTQIVTKNYRQRVLPALVIKEAGDRLAATFGYEMRELQRTRAPSTRSGRPSQQQVNVDAKSYVLVSKLDPEVYSKYVEHKEAAHVSGFAFVVISIVHLSGGKISEEDLWHQLRRLGLNESDENHPVLGNNKQALELLVQQRYLLKEKLSGPEGHSMMYELAERALDESISGKLKDYISQVVSTSTAAEVD | soluble |
| MAVAPTAREENVYMAKLAEQAERYEEMVEFMEKVSNSLGSEELTVEERNLLSVAYKNVIGARRASWRIISSIEQKEESRGNEEHVNSIREYRSKIENELSKICDGILKLLDAKLIPSAASGDSKVFYLKMKGDYHRYLAEFKTGAERKEAAESTLTAYKAAQDIATTELAPTHPIRLGLALNFSVFYYEILNSPDRACNLAKQAFDEAIAELDTLGEESYKDSTLIMQLLRDNLTLWTSDMQDDGADEIKEDPKPDEAKN | soluble |
| MAVEEFNQNLNEIMKFKECNITVDTCVVIDGRITELISDGTIEKCTIIVPEAVISELEAQANKGREIGYFGIEELKKLVKVAKENEMVLEYYGERPSTGEVSLAKAGEIDAMIRKVAKDTNSILFTSDRIQYNLAIAQNINAHFLKVHEEKVDLKLV | not soluble |
| MAVIEAEGLWKIFGGDPERARTLAKEGMSKAEVKEETGSVIAVDDANFEVQEQEIFVVMGLSGSGKSTLLRCVNRLIEPTFGKVHVHDDEVTAFDEDRLRKLRRTKMSMVFQNFGLFPHRTVIGNVEYGLEVAGMDKEKRRGKARQSLELVGLDGYEDSQTSQLSGGMQQRVGLARALVNDPEILLMDEAFSALDPLIRADMQNELLELQEQWDPACTILFITHDLDEALKMGDRIAIMKDGRIAQIGTPTEILTEPADEYVRSFVENVDRTKIVPARTVMRALGDDETVAADGPSVSPHTPIAELLPALVDADGPLAVRDSGGTLQGVVSQDAVMEEVVQNADGARRRDARAGRTDEDPEAAVALEHHHHHH | soluble |
| MAVNPATGKSDFVMMSEQQELGMGARYNQEILKQFPRYNDEKLQAYVQRVGERVARSSHRSNLQYHFTVIDSPDINAFALPGGYIYIHRGLIAYLGSEAELAAVLGHEVGHVTARHSVRQQSQASAWNILGQAVAIGTGVGAAGDLANVLGTAFVRGYGRDMELEADGLGAQYLARAGYDPTAMIQVVRVLKNQEDFAREEAARNGQAVQAGGYHGLFDTHPDNDRRLQEVVGPARQLANGQQEVGREVFLRHLEGMPFGDSASAGVRRGQNFYHAELDFTLSYPAGWKILNQPSALLGYPADEQSFIGMKLVPHDSRLTPAEFLRKNAGQRLAQEESLKQAGLNGYTAVVPGNPARRVAVIYQGDRAYLFVGVVKVGSLETQDDRFLSVIRSFRPLRDKERALAQPRRLHLVQVKAGQTLEQLAAGGEGSLSDSVARLRLLNDLYPSGEPRPGDWLKVVRLEHHHHHH | not soluble |
| MAVSDNTFSMSTMFNALPNPTETSGYIPPSGFAPRASATPLHAALFNLMTDGDGVSYFKEMISKSDKTELQRMASLLTSDSDYFMSIVTTKFGSRRVQKLLGKSDDVDAFFCAAILRRFLHITTDKYASYVTIRAMVVFDKVMKKALYERILYHALDLACDQHGCIALNDIITDADDPYYRDQLLELVVSNALRLSNDASGNFVVQHVLTLYDSRCIHNIAVNLYGQCIELSFKKYGSYIVEKLLEVEESMVVVVVELLGCDGDRLMRLARNEFGNFVVVKALRFTKEMRMDLFWGLVQKLMPFIHLLRRSHGNNIANILDTFRLRC | soluble |
| MAVSLPTKYPLRPITNIPKSHRPSLLRVRVTCSVTTTKPQPNREKLLVEQRTVNLPLSNDQSLQSTKPRPNREKLVVEQRLASPPLSNDPTLKSTWTHRLWVAAGCTTLFVSLAKSVIGGFDSHLCLEPALAGYAGYILADLGSGVYHWAIDNYGDESTPVVGTQIEAFQGHHKWPWTITRRQFANNLHALAQVITFTVLPLDLAFNDPVFHGFVCTFAFCILFSQQFHAWAHGTKSKLPPLVVALQDMGLLVSRRQHAEHHRAPYNNNYCIVSGAWNNVLDESKVFEALEMVFYFQLGVRPRSWSEPNSDWIEETEISNNQA | soluble |
| MAVTVDDIKLSLRIDVTEDDPMIKSYLDAAKDYVQTAVSKNEDLTIYKQYDFAVSLLTQFWYQNRVTDMTKTPYQVVSMIQQLRGLVAG | not soluble |
| MAYFFKNLVFEGGGVKGIAYIGALEVLQEEKIFPKIKRVAGTSAGAIMAVLIGLGYTPSEIKEIMWCLNFKNFMDDSWGIIQDTKRLIEKFGWYKGDFFRNWLGDLIKAKTGNSESTFADLAAMKGENKFLDISLIGTNLSTGFSEIFSAEHTPRICIADAARISMSIPLFFAAKRNFRNDVYVDGGMLNNYPVKVFDRTKYVTKNFTRTGYYEPINKKLEKRPRKIADYVYNKETLGFRLDSKEKIAFFRDNAEPPHRDIDSFFDYTVSLFGTLLSAQDDVHLHSDDWQRTIYIDTLGVKTTDFAISDAQKKALLESGRSYTQSYLEWYNNSEEKVNK | not soluble |
| MAYNLKEVAKKPERLTGGHRMCAGCGAPIVVRQVLKALKPEDHAVISAATGCLEVSTFIYPYTAWKDSFIHSAFENTGATISGAEAAYKVLKKKGKIEGETKFIAFGGDGGTYDIGLQALSGAMERGHDMVYVCYDNGAYMNTGIQRSSATPKYADTTTSPVGKKIPGKMQPRKDLTEVLVNHRIPYVAQTAPFGNMKDLYEKAEKAIYTPGPAFLNVLAPCPRGWRYNTPDLMELSKLAVETCFWPLYEVIDGKYIINYKPKEKVPVKEFLKLQGRFKHLFKAGNEYMLEEIQKEVDLRWERLLKLAGEA | not soluble |
| MAYSKIRQPKLSDVIEQQLEFLILEGTLRPGEKLPPERELAKQFDVSRPSLREAIQRLEAKGLLLRRQGGGTFVQSSLWQSFSDPLVELLSDHPESQYDLLETRHALEGIAAYYAALRSTDEDKERIRELHHAIELAQQSGDLDAESNAVLQYQIAVTEAAHNVVLLHLLRCMEPMLAQNVRQNFELLYSRREMLPLVSSHRTRIFEAIMAGKPEEAREASHRHLAFIEEILLDRSREESRRERSLRRLEQRKN | soluble |
